Earlier results, collected in publication PMC6769993, “Immunomodulatory Functions of the Human Cathelicidin LL-37 (aa 13–31)-Derived Peptides are Associated with Predicted α-Helical Propensity and Hydrophobic Index” (Biomolecules, 2019).

Text: The minimum region of LL-37 required for its immunomodulatory functions is an internal sequence from amino acids 13–31 [13], known as peptide IG-19. […] IG-19 suppresses inflammatory cytokine production by engaging various signaling intermediates in the presence of bacterial endotoxin or cytokine IL-32 [10, 13, 14]. Both LL-37 and IG-19 also share structural similarities; these are both α-helical amphipathic peptides with net positive charges of +6 and +5, respectively. Previous s ...

LL-37: the only human cathelicidin cationic host defense peptide, 37 amino acids
Net positive charge: +6
